Experimental data from article PMC5856539.

Biological target: GFP-tagged Ska complex (Ska complex^Ska3-GFP) (human) (UniProt Q96BD8)
Assay: SEC-MALS

Q: With “GFP-tagged Ska complex (Ska complex^Ska3-GFP) (from UniProt Q96BD8;Q8WVK7;Q8IX90)” as the substance, how does the stoichiometry N read?
A: Its stoichiometry N is 2.
